Measured values from US12466853B2, “Selective targeting of apoptosis proteins by structurally-stabilized and/or cysteine-reactive NOXA peptides” (priority 2017, dated 2025).
Where a chain is given by its changes, count along the chain named. “Also recorded” adds a separate entry of the source. Positions of bridges follow the written chain, without caps; N, C: chain ends. Non-standard residues stand in square brackets, D forms with d. No end group written: not given here. R8 = C=CCCCCCC[C@@](C)(N)C(=O)O; S5 = C=CCCC[C@](C)(N)C(=O)O

Assays:
His-BFL-1ΔC C4S/C19S = target: T1, His-BFL-1ΔC C4S/C19S (Homo sapiens, UniProt Q16548, C19S/C4S); test: In vitro covalent conjugation assay (gel shift, Coomassie; intact mass spectrometry); format: binding
T1 construct: Recombinant anti-apoptotic BFL-1ΔC (aa 1-151) and its cysteine to serine mutants were cloned into PET17b; made in house; host or cells: Escherichia coli LOBSTR BL21(DE3)
T1 sequence (Q16548 1-151 C4S/C19S): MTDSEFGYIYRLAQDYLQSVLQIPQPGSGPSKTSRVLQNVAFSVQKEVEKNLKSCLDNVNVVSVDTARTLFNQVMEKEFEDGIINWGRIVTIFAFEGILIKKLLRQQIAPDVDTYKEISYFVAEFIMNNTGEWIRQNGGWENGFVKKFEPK
Text: To generate constructs with particular binding selectivities, cell penetrance properties, in vivo stability, and biological activity to enable the development of a drug for clinical use, staple scanning methodology was first used to generate a library of cysteine-reactive NOXA SAHBs to optimize binding potency, selectivity, and cellular penetrance. […] Staple scanning was achieved by sequential placement of (i, i+4) and (i, i+7) staples across the length of the peptide template, while keeping the N-terminal D-nipecotic acid (D-NA) reactive group constant (FIG. 2). We measured the reactivity of this NOXA library by incubating each peptide with BFL-1ΔC and detecting a higher molecular weight conjugate upon reducing and denaturing gel electrophoresis, and Coomassie staining (FIG. 3). Those peptides capable of covalent reaction with BFL-1 were advanced to cellular testing for peptide uptake. 293T cells transfected with HA-BFL-1ΔC C4S/C19S were treated with peptide (20 μM, 6 hr), and then harvested and lysates analyzed by anti-HA western blotting (FIG. 4). […] However, upon LDH release testing in A375P cells, this peptide was unexpectedly found to cause membrane disruption (FIG. 5). […]

A375P cells = test: LDH release assay, A375P cells; format: cell-based, human; settings: 30 min
Description: After overnight incubation for A375P cells, or immediately upon plating for U937 cells, the cells were treated with the indicated concentrations of D-NA-NOXA SAHBs in DMEM or RPMI supplemented with 5% FBS for the indicated time period (30 min, 4 h). After plate centrifugation at 1,500 rpm (Thermo Scientific Sorvall Four-Place Swinging Bucket Rotor [75006445]; 478×g) for 5 min at 4° C., LDH release was quantified by transferring 100 μL of cell-culture medium to a clear plate (Corning), incubating with 100 μL of LDH reagent (Roche) for 30 min while shaking, and then measuring absorbance at 490 nm on a microplate reader (Spectramax M5, Molecular Devices).

His-BFL-1ΔC = target: T2, His-BFL-1ΔC (Homo sapiens, UniProt Q16548); test: Streptavidin pulldown from recombinant protein mixture, BFL-1; format: binding; settings: equimolar mixture of recombinant MCL-1, BCL-XL, BFL-1 and biotinylated SAHB, silver stain; listed as D-NA-NOXA SAHB
T2 construct: Recombinant anti-apoptotic BFL-1ΔC (aa 1-151) and its cysteine to serine mutants were cloned into PET17b; made in house; host or cells: Escherichia coli LOBSTR BL21(DE3)
T2 sequence (Q16548 1-151): T1 sequence (Q16548 1-151 C4S/C19S) with S4C, S19C
Description: (§1) WT His-BFL-1ΔC, BCL-XLΔC (tagless), and GST-MCL-1ΔNΔC (1 μM each) were combined and incubated with 3 mM DTT in PBS for thirty minutes at room temperature. Mixtures were treated with vehicle or the indicated C-terminally biotinylated NOXA SAHB (1 μM) for four hours and were then added to 30 μL PBS-washed high-capacity streptavidin (SA) agarose beads (Thermo Fisher Pierce) and incubated with rotation at room temperature for two hours. The beads were then washed three times with NP-40 lysis buffer (1% NP-40, 50 mM Tris pH 8, 100 mM NaCl, 2.5 mM MgCl2) and three times with PBS. To elute bound protein, beads were boiled for ten minutes with 10% SDS containing 10 mg/mL biotin. After elution, samples were boiled with 3×LDS and 2M DTT for twenty minutes. Gel electrophoresis using a 12% Bis-Tris gel was conducted on inputs (2%) and eluates (5 μL) and gels were developed using the Pierce silver staining kit (Thermo Fisher).

GST-MCL-1ΔNΔC = target: T3, GST-MCL-1ΔNΔC (Homo sapiens, UniProt Q07820); test: Streptavidin pulldown from recombinant protein mixture, MCL-1; format: binding; settings: equimolar mixture of recombinant MCL-1, BCL-XL, BFL-1 and biotinylated SAHB, silver stain
T3 construct: BCL-XLΔC (aa 1-212) and MCL-1ΔNΔC (aa 172-329) were cloned into the PGEX-4T-1; made in house; host or cells: Escherichia coli BL21(DE3)
T3 sequence (Q07820 172-329, stated change not applied): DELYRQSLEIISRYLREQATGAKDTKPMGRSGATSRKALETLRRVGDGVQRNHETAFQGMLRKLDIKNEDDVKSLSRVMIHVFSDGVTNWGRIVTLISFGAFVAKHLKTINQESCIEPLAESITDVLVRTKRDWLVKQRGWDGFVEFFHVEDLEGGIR
Description: as §1

native BFL-1 = target: T4, native BFL-1 (Homo sapiens, UniProt Q16548); test: BFL-1 targeting in A375P lysates (streptavidin pulldown, BFL-1 western); format: binding; settings: biotinylated SAHB, compared to acetylated construct
T4 construct: endogenous in cells; host or cells: A375P melanoma cells (A10); U937 AML cells (A12), lysates
T4 sequence (Q16548 1-175): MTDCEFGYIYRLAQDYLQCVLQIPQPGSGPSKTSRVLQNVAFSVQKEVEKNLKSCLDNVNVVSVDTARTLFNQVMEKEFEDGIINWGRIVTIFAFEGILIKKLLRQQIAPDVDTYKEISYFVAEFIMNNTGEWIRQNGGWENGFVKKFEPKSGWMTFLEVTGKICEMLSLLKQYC
Description: Cultured A375P and U937 cells were trypsinized or harvested, respectively, washed with PBS, and lysed by incubating with 1% CHAPS lysis buffer (1% CHAPS, 150 mM NaCl, 50 mM Tris pH 7.4, 100 μM DTT). The protein concentrations of the soluble fraction were measured using a BCA kit according to the manufacturer's instructions (Thermo Scientific). Lysate samples (1 mg) were incubated with vehicle or C-terminally biotinylated NOXA SAHBs (30 μM) overnight in 1% CHAPS lysis buffer at 4° C. Biotin capture was accomplished by incubating the mixture with high-capacity SA agarose (Thermo Scientific) for 2 hours at 4° C., followed by centrifugation and washing the pelleted beads three times with lysis buffer (1 mL). Bead-bound proteins were eluted by boiling in 10% SDS containing 10 mg/mL biotin for 10 minutes and then subjected to electrophoresis and western blotting using BFL-1 (Abcam, #125259) and MCL-1 (Rockland #600-401-394S) antibodies.

Q: Which “BFL-1 crosslinking (increase in molecular weight)” value (His-BFL-1ΔC C4S/C19S; BFL-1 constructs bearing C55 (wild-type and C4S/C19S) vs C55S, C4S/C19S/C55S) does the source give for “*AT8LRRFGDXLNFRQ (AT[R8]LRRFGD[S5]LNFRQ; staple 3-10 (inferred); not fully specified (N-terminus); printed as *AT8LRRFGDXLNFRQ; also: N-terminal cap * is Ac or D-nipecotic acid, not settled) [NOXA-15]” here?
A: discrete increase in molecular weight

Q: What about the “conversion of BFL-1 C4S/C19S to peptide adduct” value (His-BFL-1ΔC C4S/C19S; intact mass spectrometry) of the same substance?
A: complete conversion

Q: What about the “LDH release (lytic activity)” value (A375P cells) of the same substance?
A: non-specific cell lysis

Q: What about the “BFL-1 binding / pull down” value (His-BFL-1ΔC) of the same substance?
A: robust BFL-1 pull down; also recorded: substantial pull-down of BFL-1

Q: What about the “MCL-1 binding / pull down” value (GST-MCL-1ΔNΔC) of the same substance?
A: similarly small amount of MCL-1

Q: And the “targeting of native BFL-1” value (native BFL-1)?
A: markedly enhanced BFL-1 pull down compared to Ac-NOXA SAHB
